Data as given in publication PMC12931925.

Target: KRAS^G12D (UniProt P01116)

Chain of RBDCRD-NarX fusions (RAS-binding components of the RAS sensor, RBDCRD wild-type) (P0AFA2 whole entry, looked up, the tested form may be a part): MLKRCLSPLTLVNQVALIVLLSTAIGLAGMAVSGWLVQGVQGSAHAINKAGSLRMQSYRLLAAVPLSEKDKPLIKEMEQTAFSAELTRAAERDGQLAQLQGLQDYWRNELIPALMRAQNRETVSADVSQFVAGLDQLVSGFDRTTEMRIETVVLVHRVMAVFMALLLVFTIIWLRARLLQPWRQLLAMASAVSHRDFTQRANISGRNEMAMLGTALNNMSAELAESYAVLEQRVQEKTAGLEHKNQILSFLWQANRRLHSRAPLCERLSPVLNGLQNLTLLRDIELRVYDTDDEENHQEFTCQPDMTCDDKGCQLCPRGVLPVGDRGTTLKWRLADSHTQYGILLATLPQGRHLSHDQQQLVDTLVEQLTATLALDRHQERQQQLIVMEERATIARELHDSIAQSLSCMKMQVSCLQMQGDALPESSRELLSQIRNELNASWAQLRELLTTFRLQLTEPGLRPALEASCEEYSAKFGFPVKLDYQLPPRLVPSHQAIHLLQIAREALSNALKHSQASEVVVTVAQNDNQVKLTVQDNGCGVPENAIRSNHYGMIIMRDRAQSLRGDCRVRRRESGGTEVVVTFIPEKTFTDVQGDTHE

- increase in relative mCerulean output of the functional RAS sensor compared to 0 ng/well of KRAS^G12D plasmid (HEK293, Figure 2—figure supplement 2b): 14 fold
Substance: RBDCRD-NarX fusions (RAS-binding components of the RAS sensor, RBDCRD wild-type) (from UniProt P0AFA2 379-598; P0AFA2 379-598)
